B1: humanized anti-EphA4 monoclonal antibody (antibody B) (antibody, human IgG2, V domains shown)
VH: QVQLVESGGGVVQPGRSLRLSCAVSGFSLTRFGVHWVRQAPGKGLEWVAVIWRGGSTDYNAAFMSRLTISKDNSKNTVYLQMNSLRAEDTAVYYCAKESLFGVYYDYGYYSMDYWGQGTTVTVSS
VL: DIQMTQSPSSLSASVGDRVTITCRASQEISGYLSWLQQKPGKAPKRLIYAASTLDSGVPSRFSGSRSGTEYTLTISSLQPEDFATYYCLQYASYPLTFGGGTKVEIKR
notes: expressed in Expi293F cells; also called humanized antibody of antibody A; HK2-42 / L1-8
B2: mouse anti-EphA4 monoclonal antibody (antibody A) (antibody, mouse IgG1, kappa, V domains shown)
VH: QVQLKQSGPSLVQPSQSLSITCTVSGFSLTRYGVHWVRQSPGKGLEWLGVIWRGGSTDYNAAFMSRLSITKDNSKSQVFFKMNSLQADDTAIYYCAKESLFGVYYDYGYYSMDYWGQGTSVTVSS
VL: DIQMTQSPSSLSASLGERVSLTCRASQEISGYLSWLQQKPDGTIKRLIYAASTLDSGVPKRFSGSRSGSDYSLTISSLESEDFADYYCLQYASYPLTFGAGTKLELKR
notes: purified from hybridoma supernatant

Tests used:
[1] = target: T1, human EphA4 extracellular region-SEAP-His protein (human, UniProt P54764 20-547); assay: SPR (Biacore T200): human EphA4 extracellular region-SEAP-His captured on anti-His antibody, antibody B 1.6-100 nM as analyte, 1:1 fit
T1 construct: also called human EphA4 extracellular region-SEAP-His 10; not shown: secretory alkaline phosphatase (SEAP); histidine tag
Procedure: The binding affinity of antibody B obtained in Example 1 against human EphA4 was determined by surface plasmon resonance (SPR method) employing Biacore T200 (GE Healthcare). First, anti-His antibodies (GE Healthcare, 28-9950-56) were fixed to a sensor chip CMS. Fixation was carried out by amine coupling method employing N-hydroxysuccinimide (NHS) and N-ethyl-N′-(3-dimethylaminopropyl) carbodiimide hydrochloride salt (EDC), and ethanolamine was employed for blocking (the sensor chip and reagents for fixation are all from GE Healthcare). This was diluted with the fixation buffer (10 mM sodium acetate, pH 4.5) to 3.5 μg/mL, and fixed onto the sensor chip according to the protocol accompanying Biacore T200. Human EphA4 extracellular region-SEAP-His 10 was diluted with the running buffer HBS-EP (GE Healthcare, BR-1001-88), and the solution was sent and captured onto the flow cell for 120 seconds (about 10 RU of captured amount). […] Fitting analysis by 1:1 binding model employing the software accompanying the system, BIA evaluation software, was carried out against the binding reaction curve obtained, and the affinity (KD=kd/ka) against human EphA4 was calculated.

MBP = assay: ELISA: human EphA4 domain-MBP-His proteins (10 nM) captured on anti-6-His antibody, antibody A 10 nM, HRP anti-mouse IgG Fc fragment antibody, OD450-OD650
Procedure: For antibody A, the evaluation of binding activity with various domains in human EphA4 was carried cut according to the following steps.
Rabbit anti-6-His antibodies (Bethyl Laboratories) were coated onto the wells of a 96-well plate (Nunc). After incubating at 4° C. overnight, the wells were blocked at room temperature for 1 hour by 1% Block Ace (DS Pharma Biomedical). After washing twice with 0.02% Tween 20/PBS (Nacalai Tesque), human EphA4 extracellular region-MBP-His protein, human EphA4 ligand binding domain-MBP-His protein, human EphA4 fibronectin type III domain 1-NBP-His protein, and human EphA4 fibronectin type III domain 2-MBP-His protein (final concentration 10 nM) were seeded into the wells, and incubated at room temperature for 1 hour. After washing 3 times, antibody A (final concentration 10 nM) was supplemented to the wells, and incubated at room temperature for 1 hour. Horseradish peroxidase-labeled goat anti-mouse IgG Fcγ fragment antibody (Jackson ImmunoResearch Laboratories) was added, and incubated at room temperature for 1 hour. After washing 5 times, TMB solution (KPL) was added to the wells, and upon confirmation of modest coloring, an equal amount of quenching solution (2 N H₂SO₄, Wako Pure Chemicals) was added to the wells, and absorbance at 450 nm and 650 nm were read by a microplate reader (PerkinElmer).

[2] = target: T2, mouse EphB6 extracellular region-Fc-His protein (mouse; human, UniProt O08644 33-591); assay: ELISA: Fc-His proteins (1 nM) captured on anti-6-His antibody, antibody A 10 µg/mL with human IgG 100 µg/mL, HRP anti-mouse IgG, OD450 as % of mouse EphA4-Fc-His
T2 construct: extracellular domain; not shown: Fc region of human IgG1; histidine tag
T2 sequence (looked up): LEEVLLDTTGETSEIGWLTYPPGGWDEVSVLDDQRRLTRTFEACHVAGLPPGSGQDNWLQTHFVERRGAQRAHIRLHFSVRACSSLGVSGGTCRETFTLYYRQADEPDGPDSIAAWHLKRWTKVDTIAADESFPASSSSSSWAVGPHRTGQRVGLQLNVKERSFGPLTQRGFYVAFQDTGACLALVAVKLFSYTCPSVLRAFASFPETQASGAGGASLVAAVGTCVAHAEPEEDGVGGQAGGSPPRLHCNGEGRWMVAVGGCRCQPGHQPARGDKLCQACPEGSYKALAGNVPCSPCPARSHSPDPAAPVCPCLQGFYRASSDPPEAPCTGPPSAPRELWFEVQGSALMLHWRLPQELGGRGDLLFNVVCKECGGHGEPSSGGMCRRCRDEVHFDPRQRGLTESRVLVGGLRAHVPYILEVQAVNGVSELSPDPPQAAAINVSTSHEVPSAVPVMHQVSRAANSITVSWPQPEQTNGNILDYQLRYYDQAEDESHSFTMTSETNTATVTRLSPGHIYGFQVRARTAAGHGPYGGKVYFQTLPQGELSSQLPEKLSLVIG

T1 sequence (P54764 20-547): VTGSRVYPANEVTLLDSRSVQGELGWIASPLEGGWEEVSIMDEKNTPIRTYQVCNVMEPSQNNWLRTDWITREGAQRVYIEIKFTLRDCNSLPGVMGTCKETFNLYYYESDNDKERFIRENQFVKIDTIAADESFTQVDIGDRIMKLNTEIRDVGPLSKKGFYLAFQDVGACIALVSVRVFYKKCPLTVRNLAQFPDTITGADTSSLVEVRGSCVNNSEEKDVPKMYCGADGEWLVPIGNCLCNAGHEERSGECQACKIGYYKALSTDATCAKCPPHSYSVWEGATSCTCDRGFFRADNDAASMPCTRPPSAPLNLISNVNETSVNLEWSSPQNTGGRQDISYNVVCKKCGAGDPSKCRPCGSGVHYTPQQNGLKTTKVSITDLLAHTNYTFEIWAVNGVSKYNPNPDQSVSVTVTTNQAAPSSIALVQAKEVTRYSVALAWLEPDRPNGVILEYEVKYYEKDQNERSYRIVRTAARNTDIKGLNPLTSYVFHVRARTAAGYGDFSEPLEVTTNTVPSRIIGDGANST

Binder | koff [1] | kon [1] | binding result (MBP) | binding result [2]
B1 | 0.000494 s⁻¹ | 370000 M⁻¹ s⁻¹ |  | 
B2 |  |  | no binding (tested: 10 nM) | no binding (tested: 10 µg/mL)

— patent US20240010735A1 (EISAI R AND D MANAGEMENT, published 2024)
